Test results from patent US20210101970A1 (Pfizer, published 2021).
Values belong to the binder of their own block, whether it stands above or below them.

How the values were obtained:
CXCR1 = molecular target: T1, CXCR1 (human, UniProt P25024 1-350); experiment: flow cytometry (GMFI) on fixed CXCR1 cells, chimeric antibody, goat anti-human PE
T1 construct: whole, on cells
T1 sequence (looked up): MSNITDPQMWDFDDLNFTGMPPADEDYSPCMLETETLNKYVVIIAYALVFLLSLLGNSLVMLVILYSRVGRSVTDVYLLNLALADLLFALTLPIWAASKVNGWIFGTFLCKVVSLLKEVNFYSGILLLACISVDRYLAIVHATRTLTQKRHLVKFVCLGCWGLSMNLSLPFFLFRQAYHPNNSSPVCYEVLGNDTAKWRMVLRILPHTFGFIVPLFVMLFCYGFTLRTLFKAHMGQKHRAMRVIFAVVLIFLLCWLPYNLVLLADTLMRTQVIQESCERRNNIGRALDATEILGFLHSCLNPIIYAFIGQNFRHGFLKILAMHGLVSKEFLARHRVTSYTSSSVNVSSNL
Procedure: (§1) To determine the specificity of the antibodies for CXCR5, the binding of the antibodies to cells expressing other […] was assessed. Briefly, FlowCellect chemokine receptor cell lines expressing CXCR1, CXCR2, or CXCR3 (EMD Millipore, Billerica, Mass.), and Jurkats (ATCC, Manassas, Va.), which express CXCR4, were stained with 5 μg/ml or 10 μg/ml of each anti-CXCR5 chimeric antibody. The cells were then incubated with goat anti-human conjugated with PE (Southern Biotech, Birmingham, Ala.) prior to analysis by flow cytometry using a FACSVerse Analyzer (BD Biosciences, Franklin Lakes, N.J.).

human CXCR5 [1] = molecular target: T2, human CXCR5 (human, UniProt P32302 1-372); experiment: flow cytometry on Raji cells, fucosylated chimeric antibody
T2 construct: also called hCXCR5; C-X-C chemokine receptor type 5
T2 sequence: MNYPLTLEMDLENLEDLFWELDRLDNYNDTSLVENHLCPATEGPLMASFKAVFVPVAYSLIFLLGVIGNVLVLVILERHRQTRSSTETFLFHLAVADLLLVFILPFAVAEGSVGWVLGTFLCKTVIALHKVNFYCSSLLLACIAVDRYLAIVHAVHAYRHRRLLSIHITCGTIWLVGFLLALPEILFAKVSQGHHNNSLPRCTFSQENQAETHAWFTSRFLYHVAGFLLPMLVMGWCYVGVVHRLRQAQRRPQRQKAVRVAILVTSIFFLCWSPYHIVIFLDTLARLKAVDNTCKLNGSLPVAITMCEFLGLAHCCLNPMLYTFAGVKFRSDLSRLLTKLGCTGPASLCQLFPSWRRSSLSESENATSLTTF
Procedure: The fucosylated chimeric antibodies were then purified using protein A columns. The apparent affinity (cell binding EC50s) of chimeric antibody binding to Raji cells was determined by flow cytometry using a FACSVerse Analyzer (BD Bioscience, Franklin Lakes, N.J.) and are shown in Table 3.

CXCR2 = molecular target: T3, CXCR2 (human, UniProt P25025 1-360); experiment: flow cytometry (GMFI) on fixed CXCR2 cells, chimeric antibody, goat anti-human PE
T3 construct: whole, on cells
T3 sequence (looked up): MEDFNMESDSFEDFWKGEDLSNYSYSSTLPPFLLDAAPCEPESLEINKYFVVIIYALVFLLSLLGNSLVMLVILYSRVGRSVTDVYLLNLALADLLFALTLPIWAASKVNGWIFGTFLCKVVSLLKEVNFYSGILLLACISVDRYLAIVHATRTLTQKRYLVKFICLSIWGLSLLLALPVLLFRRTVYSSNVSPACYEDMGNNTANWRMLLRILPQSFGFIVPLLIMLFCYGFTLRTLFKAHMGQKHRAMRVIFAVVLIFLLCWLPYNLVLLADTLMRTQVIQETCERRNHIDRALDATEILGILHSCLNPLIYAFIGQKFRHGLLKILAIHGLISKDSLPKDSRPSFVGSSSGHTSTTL
Procedure: as §1

CXCR3 = molecular target: T4, CXCR3 (human, UniProt P49682 1-368); experiment: flow cytometry (GMFI) on fixed CXCR3 cells, chimeric antibody, goat anti-human PE
T4 construct: whole, on cells
T4 sequence (looked up): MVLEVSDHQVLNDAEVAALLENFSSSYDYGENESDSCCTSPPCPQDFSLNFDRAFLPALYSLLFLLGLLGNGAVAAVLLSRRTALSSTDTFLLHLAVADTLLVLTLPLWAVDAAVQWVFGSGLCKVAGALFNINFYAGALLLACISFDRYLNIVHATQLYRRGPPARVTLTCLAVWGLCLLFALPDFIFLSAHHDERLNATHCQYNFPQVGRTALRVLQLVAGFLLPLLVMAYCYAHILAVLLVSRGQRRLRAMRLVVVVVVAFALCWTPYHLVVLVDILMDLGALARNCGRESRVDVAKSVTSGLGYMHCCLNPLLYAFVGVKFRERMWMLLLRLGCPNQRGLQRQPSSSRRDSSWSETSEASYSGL
Procedure: as §1

cynomolgus monkey CXCR5 [2] = molecular target: T5, cynomolgus monkey CXCR5 (cynomolgus monkey, UniProt P32302 1-372 (human entry)); experiment: flow cytometry on cynoCXCR5-300.19 cells, fucosylated chimeric antibody
T5 construct: also called cynoCXCR5; NHP CXCR5
T5 chain: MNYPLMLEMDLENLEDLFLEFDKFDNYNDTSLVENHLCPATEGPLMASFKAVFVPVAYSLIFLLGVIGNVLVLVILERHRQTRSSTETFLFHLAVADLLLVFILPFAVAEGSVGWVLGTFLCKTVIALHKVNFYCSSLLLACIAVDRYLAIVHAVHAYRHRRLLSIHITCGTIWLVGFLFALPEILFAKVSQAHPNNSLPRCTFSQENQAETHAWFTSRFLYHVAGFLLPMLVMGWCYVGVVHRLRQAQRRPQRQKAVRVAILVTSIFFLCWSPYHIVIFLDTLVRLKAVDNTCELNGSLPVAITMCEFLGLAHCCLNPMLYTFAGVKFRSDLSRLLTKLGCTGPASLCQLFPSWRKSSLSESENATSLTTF

CXCR4 = molecular target: T6, CXCR4 (human, UniProt P61073 1-352); experiment: flow cytometry (GMFI) on Jurkat cells, which express CXCR4; chimeric antibody, goat anti-human PE
T6 construct: whole, on cells
T6 sequence (P61073 whole entry): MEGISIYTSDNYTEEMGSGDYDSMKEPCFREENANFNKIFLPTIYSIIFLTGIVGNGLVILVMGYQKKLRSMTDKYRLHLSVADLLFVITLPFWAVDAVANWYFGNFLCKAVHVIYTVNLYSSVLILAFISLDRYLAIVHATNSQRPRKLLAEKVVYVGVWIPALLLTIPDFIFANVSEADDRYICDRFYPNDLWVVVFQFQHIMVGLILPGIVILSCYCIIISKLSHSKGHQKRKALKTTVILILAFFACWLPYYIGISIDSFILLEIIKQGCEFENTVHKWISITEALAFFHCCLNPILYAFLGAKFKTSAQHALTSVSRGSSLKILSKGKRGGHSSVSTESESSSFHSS
Procedure: as §1

human CXCR5 [3] = molecular target: T2, human CXCR5; experiment: cell-based or functional assay
human CXCR5 [4] = molecular target: T2, human CXCR5; experiment: flow cytometry, human PBMC B cells
Procedure: (§2) The apparent affinity for cell surface CXCR5 of chimeric and humanized CXCR5 fucosylated and afucosylated antibodies was assessed. More specifically, to determine the apparent affinity of chimeric and humanized CXCR5 antibodies to CXCR5-expressing cells, cell binding experiments were performed on human and cynomolgus monkey peripheral blood mononuclear cells (PBMCs) and human tonsillar mononuclear cells (TMCs). The apparent affinity of CXCR5 mab binding to CXCR5+ cells (B cells, bona fide Tfh cells, and circulating Tfh-like cells) was calculated as the EC50 of equilibrium binding titration curves in which the geometric mean fluorescence intensity (gMFI) of the antigen binding population was quantified by flow cytometry.
(§3) Following isolation, PBMCs were plated at a density of 1.0×10⁵ cells per well and CD4+ TMCs were plated at a density of 2.0×10⁵ cells per well in isolation buffer (PBS containing 1% FBS and 1 mM EDTA) in 96 well U-bottom plates. The plates were then centrifuged at 1500 rpm for 5 minutes at room temperature. PBMCs and CD4+ TMCs were resuspended in Fluorescence-activated cell sorting (FACS) buffer (PBS containing 1% FBS) containing human crystallized fragment Fc block (2 μL per well; Biolegend) and 4-fold serial dilutions of the antibodies (11-point dilution series, beginning at 5000 ng/mL for PBMCs and 312.5 ng/mL for CD4+ TMCs) and incubated on ice for 2 hours. PBMCs and CD4+ TMCs were then washed with FACS buffer 3 times and resuspended in 50-100 μL of FACs buffer containing fluorescent-conjugated antibodies for staining lymphocyte subsets and a fluorescent-conjugated secondary antibody against human Ig to detect CXCR5 monoclonal antibodies (mAbs). After incubation for 30 minutes at 4° C., PBMCs and CD4+ TMCs were washed with FACS buffer 2 times and resuspended in 125 μL of 0.5% paraformaldehyde (PFA) in PBS. Plates were stored at 4° C. until analysis by flow cytometry (BD LSRFortessa™ Cell Analyzer, BD Biosciences, Franklin Lakes, N.J.).
(§4) The cell binding titration curves were generated by plotting the gMFI of the antigen binding population against the log of CXCR5 antibody concentration. EC₅₀ values were determined using GraphPad Prism® (version 6.0, GraphPad Software, Inc, San Diego, Calif.) nonlinear-regression curve fits and a sigmoidal log of agonist dose-response model, according to the following equation

cynomolgus monkey CXCR5 [5] = molecular target: T5, cynomolgus monkey CXCR5; experiment: flow cytometry, cynomolgus PBMC B cells
Procedure: as §2, §3, §4

EC50 (human CXCR5 [1]): 0.0421 nM
EC50 (cynomolgus monkey CXCR5 [2]): 0.0603 nM
B1: chimeric 5H7 (antibody, human IgG1, kappa, V domains shown)
VH: EVKLVESGGGLVQPGDSLRLSCATSGFTFTDFYMSWVRQPPGRALEWLGFIRNKANGYTTEYSASVKGRFTISRDNSQSILYLQMNTLRAGDSATYYCVRVYGSTLHYWGQGTILTVSS
VL: DVVVTQSPDSLAVSLGQRATISCRASESVEYHGTSLMHWYQQKPGQPPKLLIYAASNVESGVPARFSGSGSGTDFSLNIHPVEEGDVSMFFCQQSRKVPWTFGGGTKLEIKR
notes: mouse V regions on human IgG1/kappa; fucosylated; also called 5H7 (chimeric)
binding result (CXCR1): no binding (tested: 5 or 10 µg/ml (not on the sheet))
binding result (CXCR2): no binding (tested: 5 or 10 µg/ml (not on the sheet))
binding result (CXCR3): no binding (tested: 5 or 10 µg/ml (not on the sheet))
binding result (CXCR4): no binding (tested: 5 or 10 µg/ml (not on the sheet))

ADCC Activity Average EC50, Human B Cells (human CXCR5 [3]): 11.7 nM
EC50 (human CXCR5 [4]): 0.161 nM
EC50 (cynomolgus monkey CXCR5 [5]): 0.549 nM
EC50 (human CXCR5 [1]): 0.39 nM
EC50 (cynomolgus monkey CXCR5 [2]): 0.831 nM
B2: Chimeric 41A10 (antibody, human IgG1, kappa, V domains shown)
VH: EVQLVESGGDLVKPGGSLKLSCAASGFTFRSYGMSWVRQTPDKRLEWVATISSGGTYTFYPDILKGRITISRDNAKNTLYLQMSNLKSEDTAMYYCARRGEDYRGALEHWGQGTSVTVSS
VL: QIVLTQSPAVMSASPGEKVTMTCSASSSVNYIHWYQQKSGTSPKRWIYETSRLASGVPVRFSGSGSGTSYSLTISTMEAEDAATYYCQQWSSNPLTFGAGTKLELKR
notes: mouse V regions on human IgG1/kappa; fucosylated; also called 41A10 (chimeric)
binding result (CXCR1): no binding (tested: 5 or 10 µg/ml (not on the sheet))
binding result (CXCR2): no binding (tested: 5 or 10 µg/ml (not on the sheet))
binding result (CXCR3): no binding (tested: 5 or 10 µg/ml (not on the sheet))
